Laboratory results published in article PMC10730914, “Multiple independent losses of the biosynthetic pathway for two tropane alkaloids in the Solanaceae family” (Nature Communications, 2023).

What was measured:
Conditions in all cases: 200 µM NADPH, 0.1 M potassium phosphate pH 6.4, 30 °C
[1] = tested on: CN1[C@@H]2CC[C@H]1CC(=O)C2; experiment: purified protein; type: biochemical, Solanum tuberosum
LcTRI = tested on: T1, LcTRI; experiment: NADPH consumption at […] nm, Michaelis-Menten fit; type: biochemical, Lycium chinense
T1 construct: gene TRI

McTRI = tested on: T2, McTRI; experiment: NADPH consumption at […] nm, Michaelis-Menten fit; type: biochemical, Mandragora caulescens
T2 construct: gene TRI

BaTRI = tested on: T3, BaTRI; experiment: NADPH consumption at […] nm, Michaelis-Menten fit; type: biochemical, Brugmansia arborea
T3 construct: gene TRI

Row | Molecule | Km [1] [µM] | Km (LcTRI) [µM] | Km (McTRI) [µM] | Km (BaTRI) [µM] | kcat [1] [s⁻¹]
1 | StTRI (Solanum tuberosum; A101V/A193G/L159V/V147L) | 110 ± 10 | – | – | – | –
2 | CN1[C@@H]2CC[C@H]1CC(=O)C2 [compound 5, tropinone] | – | 2910 ± 140 | 90 ± 10 | 310 ± 30 | –
3 | StTRI (Solanum tuberosum; A101V/L159V) | 280 ± 70 | – | – | – | 3.31 ± 0.20
